Results from patent US20180245058.

Assays:
Experiment in all cases: cell_activity
[1] = test system: rat IgM-targeted ZFN pair, ZC linkers (artificial); details: rat C6 cells, CEL-I
[2] = test system: rat IgM-targeted ZFN pair including L7a linker (artificial); details: rat C6 cells, CEL-I
[3] = molecular target: CCR5 ZFN with wild-type ZC linker (SBS #8266) (artificial) (UniProt P14870); details: average of 2; ZFN pair
[4] = test system: CCR5 ZFN with L7a linker (artificial); details: ZFN pair
Chain of CCR5 ZFN with L7a linker (artificial) (chain, as listed by the source): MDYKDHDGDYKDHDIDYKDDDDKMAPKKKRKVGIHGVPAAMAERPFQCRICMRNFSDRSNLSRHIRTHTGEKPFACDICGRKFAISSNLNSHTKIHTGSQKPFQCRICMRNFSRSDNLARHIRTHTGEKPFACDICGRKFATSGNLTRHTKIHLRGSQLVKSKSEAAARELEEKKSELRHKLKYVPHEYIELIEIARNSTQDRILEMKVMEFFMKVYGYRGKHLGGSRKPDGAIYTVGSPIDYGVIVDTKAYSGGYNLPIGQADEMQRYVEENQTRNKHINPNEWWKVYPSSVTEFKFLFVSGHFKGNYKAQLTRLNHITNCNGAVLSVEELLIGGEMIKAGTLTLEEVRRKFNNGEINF

[5] = test system: CCR5 ZFN with L6a linker (artificial); details: average of 2; ZFN pair
Chain of CCR5 ZFN with L6a linker (artificial) (chain, as listed by the source): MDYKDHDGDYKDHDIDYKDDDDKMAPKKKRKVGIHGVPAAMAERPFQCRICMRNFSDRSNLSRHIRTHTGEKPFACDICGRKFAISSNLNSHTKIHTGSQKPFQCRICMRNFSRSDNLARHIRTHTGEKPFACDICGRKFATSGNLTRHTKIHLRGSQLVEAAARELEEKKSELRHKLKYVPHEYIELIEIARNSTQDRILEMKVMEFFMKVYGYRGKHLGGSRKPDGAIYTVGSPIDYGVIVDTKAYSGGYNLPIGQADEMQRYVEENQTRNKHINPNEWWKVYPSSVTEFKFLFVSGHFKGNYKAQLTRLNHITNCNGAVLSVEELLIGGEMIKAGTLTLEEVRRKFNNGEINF

[6] = test system: mROSA-targeted ZFN pair, Wt/L7a linkers (artificial); details: Neuro2A, CEL-I; mock 0.4
[7] = test system: mROSA-targeted ZFN pair, Wt/Wt linkers (artificial); details: Neuro2A, CEL-I; repeats 23.2 and 18.7; mock 0.4

Chain of CCR5 ZFN with wild-type ZC linker (SBS #8266) (artificial) (P14870 other isoform, or with tags, fused parts or gaps): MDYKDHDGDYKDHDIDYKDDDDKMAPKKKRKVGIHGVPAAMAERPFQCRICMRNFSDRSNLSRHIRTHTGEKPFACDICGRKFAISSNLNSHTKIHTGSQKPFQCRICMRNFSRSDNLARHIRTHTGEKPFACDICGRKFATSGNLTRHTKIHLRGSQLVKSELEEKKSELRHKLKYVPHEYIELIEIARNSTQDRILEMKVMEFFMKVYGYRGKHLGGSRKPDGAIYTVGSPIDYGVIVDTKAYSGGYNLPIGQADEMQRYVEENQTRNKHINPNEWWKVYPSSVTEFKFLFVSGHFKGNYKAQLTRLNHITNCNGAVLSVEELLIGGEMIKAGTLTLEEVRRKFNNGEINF

With rat IgM target, 6 bp gap the activity [1] was 1.93 % NHEJ and the activity [2] was 2.43 % NHEJ.

CCR5 ZFN target, 6 bp gap gave an activity [3] of 11.1 % NHEJ, an activity ([4]; average of 2) of 31.8 % NHEJ and an activity [5] of 25.4 % NHEJ.

With mROSA target, 6 bp gap the activity [6] was 7.5 % NHEJ and the activity [7] was 22.6 % NHEJ.

Substance CCR5 ZFN target, 7 bp gap has an activity ([4]; average of 2) of 39.6 % NHEJ and an activity [5] of 5.1 % NHEJ.

With CCR5 ZFN target, 4 bp gap the activity [3] was 1.2 % NHEJ.

CCR5 ZFN target, 5 bp gap was tested, and the activity [3] was 35 % NHEJ and the activity [5] was 39.3 % NHEJ.

In the case of CCR5 ZFN target, 8 bp gap, the activity ([4]; average of 2 as printed) is reported as 6.1 % NHEJ.
